Assay results published in PMC9808565.

Target: human ACE2 protein (hACE2), recombinant, His-tagged, Met1-Ser740 (human) (UniProt Q9BYF1)
Experiment: ITC

Sequence of UniProt Q9BYF1 (Q9BYF1 18-740): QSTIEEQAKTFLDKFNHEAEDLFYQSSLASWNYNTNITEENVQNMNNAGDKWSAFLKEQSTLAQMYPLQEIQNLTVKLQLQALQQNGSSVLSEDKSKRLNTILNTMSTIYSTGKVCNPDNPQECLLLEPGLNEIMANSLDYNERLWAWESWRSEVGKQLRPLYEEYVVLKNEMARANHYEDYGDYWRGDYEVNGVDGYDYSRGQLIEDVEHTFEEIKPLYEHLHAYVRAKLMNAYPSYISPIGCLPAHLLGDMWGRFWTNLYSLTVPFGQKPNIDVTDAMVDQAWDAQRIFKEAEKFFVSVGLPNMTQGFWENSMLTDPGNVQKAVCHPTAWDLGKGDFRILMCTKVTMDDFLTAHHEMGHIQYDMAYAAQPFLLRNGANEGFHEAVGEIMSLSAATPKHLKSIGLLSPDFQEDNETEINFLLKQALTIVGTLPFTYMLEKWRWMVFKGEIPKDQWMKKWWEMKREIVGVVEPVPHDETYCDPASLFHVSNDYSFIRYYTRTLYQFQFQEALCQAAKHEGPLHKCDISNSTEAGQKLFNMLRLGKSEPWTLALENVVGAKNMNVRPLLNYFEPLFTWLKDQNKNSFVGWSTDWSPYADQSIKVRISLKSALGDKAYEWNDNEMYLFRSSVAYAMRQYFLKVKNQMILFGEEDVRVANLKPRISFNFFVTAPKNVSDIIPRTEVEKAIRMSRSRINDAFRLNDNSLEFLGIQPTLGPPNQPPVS

“SARS-CoV-1 spike RBD (RBD^CoV1), Arg306-Phe527, His-tagged (domain or fragment)” showed a Kd of 146 nM, a dH of -10.5 kcal/mol and a stoichiometry N of 1.03.
